# Test results: PMC5578167
# B1: viral Macrophage Inflammatory Protein-II (vMIP-II), human herpesvirus 8 (natural protein)
# chain: GDTLGASWHRPDKCCLGYQKRPLPQVLLSSWYPTSQLCSKPGVIFLTKRGRQVCADKSKDWVKKLMQQLPVTAR
# B2: viral Macrophage Inflammatory Protein-II (vMIP-II) (natural protein)
# chain: GDTLGASWHRPDKCCLGYQKRPLPQVLLSSWYPTSQLCSKPGVIFLTKRGRQVCADKSKDWVKKLMQQLPVTAR
# Tests used:
# [1] = target: viral CC chemokine inhibitor (vCCI), rabbitpox virus (rabbitpox virus); assay: ITC
# [2] = target: viral CC chemokine inhibitor (vCCI), rabbitpox, produced and refolded from E. coli (rabbitpox virus); assay: ITC
Binder,stoichiometry N [1],Kd [2]
B1,0.759,–
B2,–,< 0.1 nM
